One test concerns QYC cells. The test is described as follows: In vitro proliferation of QYC cells with chimeric and humanized antibody (PMS:MTS, seven days). The class given is cell-based, human. The note with it: serial antibody dilutions, FIG. 6. The method, then:
The cell lines used in viability examination was QYC cells which were obtained from Shanghai International Joint Cancer Institute. The QYC cells was cultured in 25 cm^2 flask with RPMI-1640/DMEM (V:V=1:1, GIBCO) containing 10% FBS (GIBCO).
The above cells were digested with 0.05% trypsin and in 0.02% EDTA, and cell number was counted and adjusted to 6×10^4/ml in RPMI-1640/DMEM culture medium containing 10% FCS.
The assay was performed in 96-well plate. The anti-human SM5-1 humanized and chimeric antibody described above were diluted with RPMI-1640/DMEM containing 10% FCS. The antibody to be tested (20 mg/ml) was diluted to […] in serial dilution, with each dilution no more than 10-fold. The antibody were further diluted 1:2 serially with RPMI-1640/DMEM containing 10% FCS for fourteen serial concentrations in 96-well plate, leaving 100 μl/well. Cells (100 μl) were added into each well containing 200 μl various concentration of antibody or 200 μl of RPMI-1640/DMEM containing 10% FCS as control. In order to prevent edge effect of the plate, wells that were at the edge of the plate were not used for the assay but added 200 μl PBS. The plate was incubated at 37° C. with 7% CO2 for seven days.
Color developing reagent PMS:MTS (1:20) (20 μl) was added into each well of the 96-well plate. The plate without the lid was then incubated for 3 h.
The 96-well plate was read at OD490 nm. […]

Test [1] relates to human hepatocellular carcinoma cell line QYC. The test is described as follows: Complement-dependent cytotoxicity (CDC), LDH release. Format: cell-based. As to conditions: 5% normal human sera, 3-4 h, FIG. 8. The text has this: Antigen recognized by anti-SM5-1 is highly expressed on the surface of human hepatocellular carcinoma cell line QYC. With human complement in the culture fluid, the target cells bound with chimeric antibodies will be lysed by so-called complement dependent cell mediated cytotoxicity (CDC). When there is an over dose of complement (provided by fresh normal human sera), in a certain range, the degree of lysis is related to antibody concentration. Degree of lysis can be determined by detecting lactate dehydrogenase (LDH) released by the lysed cells.
Cell line for bioactivity determination is QYC, which is without any pathogen. […]
QYC cells in the logarithmic growth stage were taken and counted. […]
50 ul supernatant was transferred from each well to corresponding wells in a second 96-well plate, and 50 ul well-mixed LDH test kit reagent was added into the well of the second plate. […] OD was measured with 490 nm as detecting light wave length, and 630 nm as reference wave length.
The results were analyzed with specific analysis software Select2.2 to make auto analysis and calculate standard curve line: horizontal axis stands for the concentration of the standard product and samples, vertical axis stands for optical adsorption, recovery equation as 4-parameter equation, resulting in a “s” curve line. Half effective dosage (ED50) of the standard product and samples were calculated. […]

For test [2], the target named is SM5-1 antigen. The test is described as follows: Affinity determination with BIAcore. Format: binding, human. (Surface plasmon resonance follows binding to a sensor surface in real time, without labels.)
Test [3] deals with hepatocelluer carcinoma cell line QYC. The test is described as follows: Antigen binding activity by FCM. The arrangement: species or system human. As to conditions: compared with chSM5-1. The method, then:
The humanized VL and VH were cloned into pMG18-3K expression vector and was expressed transiently in COS cells, yielding humanized version. Humanized antibody in COS cell culture supernatant was quantitated by ELISA and the binding of this version to hepatocelluer carcinoma cell line QYC was determined by FCM. […] The important FR residues that may have influences on binding activity were analyzed and the backmutation assay was carried out. […] The humanized version was designated as ReSM5-1 and its amino acid sequence and nucleotide sequence of both the heavy chain and the light chain shown in Table 3 below.

Test [4] deals with SM5-1 antigen. The test is described as follows: Competition binding assay.
The target of test [5] is human SM5-1 antigen (human). The test is described as follows: BIAcore (SPR), method of Karlsson et al.; antigen preparation and format not stated.

B1: chSM5-1: mouse-human chimeric antibody with mSM5-1 variable regions (SEQ ID NO:3, 4) and human constant regions (antibody, V domains shown)
VH: EVQLQQSGPELVKPGASVKMSCKASGYTFTSYVMHWVKQKPGQGLDWIGYIVPYNDGTKYNEKFKGKATLTSDKSSSTAYMELSRLTSEDSAVYYCVYGSRYDWYLDVWGAGTTVTVSS
VL: NIMMTQSPSSLAVSAGEKVTMSCKSSQSVLYSSNQKNYLAWYQQKPGQSPKLLIYWASTRESGVPDRFTGSGSGTDFTLTISSVQAEDLAVYYCHQYFSSYTFGGGTKLEIKR
modifications: human constant regions; Mus Musculus
As for B1, the “in vitro proliferation of QYC cells” value in the test with QYC cells is reported as “significantly inhibited in vitro proliferation of QYC cells”. The “anti-neoplasm effect via CDC” value in test [1] is “induced the apoptosis and inhibited the growth of tumor cells through the CDC pathway”. Also, on SM5-1 antigen [2], the Kd was 3.78 nM.

B2: humanized anti-SM5-1 antibody (ReSM5-1) (antibody, V domains shown)
VH: QVQLVQSGGGVVQPGRSLRLSCKASGYTFTSYVMHWVRQAPGKGLEWIGYIVPYNDGTKYNEKFKGRFTISSDKSKSTAFLQMDSLRPEDTAVYYCARGSRYDWYLDYWGQGTPVTVSS
VL: NIMMTQSPSSLSASVGDRVTITCKSSQSVLYSSNQKNYLAWYQQTPGKAPKLLIYWASTRESGVPSRFSGSGSGTDYTFTISSLQPEDIATYYCHQYFSSYTFGQGTKLQITR
Turning to B2, the “in vitro proliferation of QYC cells” value in the test with QYC cells is listed as “significantly inhibited in vitro proliferation of QYC cells”. Further, in test [1], the “anti-neoplasm effect via CDC” value was “induced the apoptosis and inhibited the growth of tumor cells through the CDC pathway”. Also, the Kd (at SM5-1 antigen [2]; in test [5]) was 9.31 nM in each case. The antigen binding activity result in test [3] is reported as “same antigen binding activity as chSM5-1”. Also, the avidity result with SM5-1 antigen [4] is listed as “equivalent avidity as the murine SM5-1 or chimeric SM5-1 antibody”.

The Kd is the equilibrium constant for the complex coming apart. A higher Kd goes with weaker binding.

Source of the values: patent US20050232926A1, “Antibodies specific for cancer associated antigen SM5-1 and uses thereof” (Oncomax Acquisition Corp., priority 2003, published 2005).
